Laboratory results published in patent US20070134221A1 (published 2007).
Residue numbers refer to the chain shown, from its start. In names and notes the source's numbering stands.

B1: C52F peptide (peptide)
peptide: NHTTWMEWDREINNYTSLIHSLIEESQNLQEKNEQELLELDKWASLWNWFNIKIK
B2: C52L peptide (peptide)
peptide: B1 peptide with I23F, N33A, L38F

Assays:
Assay in all cases: cell-based or functional assay
[1] = biological target: envelope glycoprotein of virus isolate HIV-1 DJ258 (HIV-1 DJ258)
[2] = biological target: envelope glycoprotein of virus isolate HIV-1 NL4-3 (HIV-1 NL4-3)
[3] = biological target: envelope glycoprotein of virus isolate HIV-1 Case C 7/86 (HIV-1 Case C 7/86)
[4] = biological target: envelope glycoprotein of virus isolate HIV-1 94ZW103 (HIV-1 94ZW103)
[5] = biological target: envelope glycoprotein of virus isolate HIV-1 UG270 (HIV-1 UG270)
[6] = biological target: envelope glycoprotein of virus isolate HIV-1 CM.235 (HIV-1 CM.235)
[7] = biological target: envelope glycoprotein of virus isolate HIV-1 BZ162 (HIV-1 BZ162)
[8] = biological target: envelope glycoprotein of virus isolate HIV-1 JFRL (HIV-1 JFRL)

Row | Binder | IC50 (nM), Human PBMC Infectivity Assays [1] [nM] | IC50 (nM), Human PBMC Infectivity Assays [2] [nM] | IC50 (nM), Human PBMC Infectivity Assays [3] [nM] | IC50 (nM), Human PBMC Infectivity Assays [4] [nM] | IC50 (nM), Human PBMC Infectivity Assays [5] [nM] | IC50 (nM), Human PBMC Infectivity Assays [6] [nM] | IC50 (nM), Human PBMC Infectivity Assays [7] [nM] | IC50 (nM), Human PBMC Infectivity Assays [8] [nM]
1 | B1 | 9 | 23 | 49 | 4 | 68 | 11 | 2 | 5
2 | B2 | 11 | 20 | 17 | 3 | 61 |  | 3 | 6
